Results on five molecules are retold here after patent US20050100919, “Nucleic acid-based detection” (Brandeis University, a Massachusetts corporation, published 2005).

The target in series [1] is T1, thrombin (UniProt P00734;P00734 P00734:328-363,P00734:364-622). Put plainly: fluorescence ratio at 100 nM thrombin in TBB; 0.7 in TE.
Series [2] deals with T1, thrombin. Put plainly: half-maximum effect, fluorescence decrease, TBB (20 mM Tris-HCl, 140 mM NaCl, 5 mM KCl, 1 mM MgCl2, 1 mM CaCl2, pH 7.5).
The target in series [3] is T1, thrombin. Description: fluorescence change at 100 nM thrombin in TE.
For series [4], the target named is T1, thrombin. Description: fluorescence beacon titration, TE buffer (20 mM Tris-HCl, 1 mM EDTA, pH 7.5), 24 C; estimated.
Series [5] has as its target T1, thrombin. Description: competition; affinity increase relative to G15D5d, filter binding competition in TE.
A further series addresses factor IX (UniProt P00740 P00740:47-461). Description: specificity control; no effect on beacon fluorescence in TE. Particulars: tags: purchased from Enzyme Research Lab; label: 5'-fluorescein, 3'-DABCYL; alternate 5-bp stem-loop / G4. How it is done:
Thrombin binding assay using a fluorescence spectrometer: The aptamers were diluted to a concentration of 10 uM in TBB or TE (20 mM Tris-HCl, 1 mM EDTA, pH7.5) and heated at 99° for three min and cooled down to room temperature prior to the experiment. The experiment was performed using 5-40 nM of aptamer in 2 ml. All of the fluorescence intensity measurements were performed at 24° C. The excitation wavelength was 495 nm and the emission was monitored at its peak, 516 nm (in TE) or 518 nm (in TBB). A small volume (0.5-3 μl) of thrombin (final concentration of 0-250 nM) was added and the change of emission was monitored.
To confirm the binding specificity of G15D5dMB, we used factor IX, which is a plasma serine protease, as is thrombin, and shares a sequence identity of 37% in the catalytic domain with thrombin.

Series [6] deals with T1, thrombin. Put plainly: competition; filter binding competition against radiolabeled G15D5d, TBB; displacement curve only in figure.
For series [7], the target named is T1, thrombin. Put plainly: fluorescence change at 100 nM thrombin in TBB; not saturated at 250 nM.
The target of series [8] is T1, thrombin. Description: fluorescence beacon titration, TE buffer, 24 C; estimated.

factor IX, sequence (P00740 47-461, one chain of several): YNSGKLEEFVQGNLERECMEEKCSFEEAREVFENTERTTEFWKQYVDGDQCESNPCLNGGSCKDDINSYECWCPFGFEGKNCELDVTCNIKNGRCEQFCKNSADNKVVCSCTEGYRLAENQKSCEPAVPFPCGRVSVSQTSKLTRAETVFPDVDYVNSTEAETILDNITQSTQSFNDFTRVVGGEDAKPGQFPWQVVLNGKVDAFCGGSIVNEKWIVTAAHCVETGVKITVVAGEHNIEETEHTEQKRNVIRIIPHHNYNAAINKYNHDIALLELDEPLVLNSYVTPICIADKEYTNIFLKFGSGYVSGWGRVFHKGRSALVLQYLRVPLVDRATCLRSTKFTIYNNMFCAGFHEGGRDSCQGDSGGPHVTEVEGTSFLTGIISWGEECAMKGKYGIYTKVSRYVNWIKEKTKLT

By EC50 is commonly meant the concentration giving half of the maximal effect. A low value points to greater potency. For the molecule TTTTTGGTTGGTGTGGTTGG (ssDNA) [G15D5ndMB], the activity with thrombin [1] is 0.5 fold. Moreover, the concentration for a half-maximal effect (EC50) with thrombin [2] was around 80 nM.
By Kd is commonly meant the concentration at which binding is half-saturated. CCAACGGTTGGTGTGGTTGG (ssDNA) [G15D5dMB] returned an activity with thrombin [3] of 2.3 fold. The Kd with thrombin [4] was 3 nM. This molecule registered a binding signal with thrombin [5] of around 6 fold. Besides, the binding result with factor IX is recorded as “no binding”.
For GGTTGGTGTGGTTGG (ssDNA) [G15D], the binding result in the series with thrombin [6] was “binds”.
In turn, CCAAGGTTGGTGTGGTTGG (ssDNA) [G15D4dMB] gave an activity in the series with thrombin [7] of 1.5 fold.
In turn, CCAACCGGTTGGTGTGGTTGG (ssDNA) [G15D6dMB] showed an activity in the series with thrombin [3] of 1.7 fold. For the same molecule, the equilibrium dissociation constant (Kd) in the series with thrombin [8] was 12 nM.
